Data set [1] deals with avian polyomavirus (APV) major capsid protein VP1 (avian polyomavirus (APV), strain BFDV-5) (UniProt P13891). The data set is described as follows: cryo-EM structure.
For data set [2] the target is unchanged. Description: negative-stain electron microscopy.
Data set [3] concerns the molecule itself. Description: cryo-EM structure.

Turning to “avian polyomavirus (APV) major capsid protein VP1 (from UniProt P13891 1-343) (natural protein)”, the stoichiometry N in data set [1] and in data set [2] was 5 each time.

B1: simian virus 40 (SV40) wild-type VP1, in virus-like particles (natural protein)
chain: APTKRKGSCPGAAPKKPKEPVQVPKLVIKGGIEVLGVKTGVDSFTEVECFLNPQMGNPDEHQKGLSKSLAAEKQFTDDSPDKEQLPCYSVARIPLPNINEDLTCGNILMWEAVTVKTEVIGVTAMLNLHSGTQKTHENGAGKPIQGSNFHFFAVGGEPLELQGVLANYRTKYPAQTVTPKNATVDSQQMNTDHKAVLDKDNAYPVECWVPDPSKNENTRYFGTYTGGENVPPVLHITNTATTVLLDEQGVGPLCKADSLYVSAVDICGLFTNTSGTQQWKGLPRYFKITLRKRSVKNPYPISFLLSDLINRRTQRVDGQPMIGMSSQVEEVRVYEDTEELPGDPDMIRYIDEFGQTTTRMQ
Consider B1, for which, in data set [3], the binding result was “binds”.
